Where no end group is shown, it is not given here. [ ]: non-standard residue; d: D form.
B1: SAA: Serum amyloid A, multi-functional apolipoprotein, 12- to 14-kDa, SEQ ID NO:19 (protein, listed as Homo sapiens)
chain: MKLLTGLVFCSLVLGVSSRSFFSFLGEAFDGARDMWRAYSDMREANYIGSDKYFHARGNYDAAKRGPGGVWAAEAISDARENIQRFFGHGAEDSLADQAANEWGRSGKDPNHFRPAGLPEKY

Experiments:
[1] = system: OA FLS; assay: Cell proliferation assay ([3H]-thymidine incorporation, cell counts) in OA FLS; format: cell-based, human; settings: 72 h
Method: Fibroblast-like synoviocytes (FLS) were prepared from synovial samples obtained from patients suffering from RA and osteoarthritis (OA), all of whom were also undergoing total joint replacement surgery. The FLS were isolated from the synovial tissues in accordance with a previously described procedure (Cho, C. S., M. L. Cho, S. Y. Min, W. U. Kim, D. J. Min, S. S. Lee, S. H. Park, J. Choe, and H. Y. Kim. 2000. CD40 engagement on synovial fibroblast up-regulates production of vascular endothelial growth factor. J. Immunol. 164: 5055-5061).
In brief, fresh synovial tissues were minced into 2- to 3-mm pieces, then treated for 4 h with 4 mg/ml type I collagenase (Worthington Biochemical), and maintained in Dulbecco's Modified Eagle's Medium (DMEM) containing 10% FBS at 37° C. in an atmosphere containing 5% CO2. […] MH7A cells, the immortalized synoviocytes that harbor the SV40 T antigen, were grown in DMEM supplemented with 10% FBS, as previously described (Miyazawa, K, A. Mori, and H. Okudaira. 1998. Establishment and characterization of a novel human rheumatoid fibroblast-like synoviocyte line, MH7A, immortalized with SV40T antigen. J. Biochem. 124: 1153-1162), and then employed in some of the experiments. Human umbilical vein endothelial cells (HUVECs) were isolated from fresh human umbilical cords via collagenase (Worthington Biochemical) digestion, and then maintained in 20% FBS-containing M-199 medium (Sigma, St. Louis, Mo.), as previously described. All HUVECs were used after no more than five passages.
The RA FLS, OA FLS, and HUVECs were plated onto 24-well culture dishes at a density of 2×10^4 cells/well, and then permitted to attach overnight. After 24 h of serum starvation, the cells were treated for 72 h with a variety of mitogens. [^3H]-thymidine (1 μCi) was added to each of the wells prior to the final 6 h of incubation. Cell growth was also evaluated via cell counts. Control and mitogen-treated cells were harvested by trypsinization, and the number of cells was determined with a hemocytometer, under ×100 magnification.

[2] = system: RA FLS; assay: Apoptosis assay (MTT, DNA fragmentation ELISA) in RA FLS; format: cell-based, human; settings: for serum starvation-induced apoptosis (MTT assay, DNA fragmentation ELISA): 72 h
Method: Synoviocyte apoptosis was induced via 3 days of serum deprivation, or by treating the cells for 12 h with either SNP (0.7 mM) or anti-Fas IgM (0.7 μg/ml) plus cyclohexamide (CHX; 1 μg/ml). The degree of apoptosis was then evaluated via MTT assay and ELISA for DNA fragmentation. In the MTT assay, FLS were seeded in 24-well culture plates at a density of 2×10^4 cells/well. After 96 h of incubation with SAA (SEQ ID NO:19) or media alone, MTT solution was added to each of the wells, and then incubated for 2 additional hours. The reaction was halted via the removal of MTT. Thereafter, DMSO (200 μL) was added in order to solubilize the formazan crystals. The plates were then subjected to 5 minutes of gentle shaking in order to ensure that the crystals had dissolved completely, and the absorbance was read at 540 nm with a microplate reader. The cellular DNA fragmentation assay was conducted using an ELISA kit (Roche Applied Science), based on the quantitative sandwich ELISA principle, using two mouse monoclonal antibodies (Roche Applied Science) targeted against DNA and 5-bromo-2′-deoxyuridine (BrdU).
In brief, the BrdU-labeled DNA fragments of the samples were bound to the immobilized anti-DNA antibody, fixing it within the wells of a microtiter plate. The immune-complexed BrdU-labeled DNA fragments were then denatured and fixed to the surfaces of the plates via the application of microwave irradiation. In the final step, the anti-BrdU peroxidase conjugate was allowed to react with the BrdU that had been incorporated into the DNA. After the removal of the unbound peroxidase conjugates, the quantity of peroxidase bound within the immune complex was determined photometrically, using TMB as a substrate.

[3] = system: RA FLS; assay: Western blot analysis of signaling molecules in RA FLS; format: cell-based, human; settings: for time of peak cyclin D1 expression: SAA 3 μM or WKYMVm 10 nM
Method: RA FLS were incubated for 24 h in DMEM without FBS, and then SAA (SEQ ID NO:19) (3 μM) was added to RA-FLS for the indicated times. The treated RA-FLS was then washed twice in phosphate-buffered saline (PBS), dissolved in sample buffer (50 mM Tris-HCl, 100 mM NaCl, 0.1% sodium dodecyl sulfate (SDS), 1% NP-40, 50 mM NaF, 1 mM Na3VO4, 1 μg/ml aprotinin, 1 μg/ml pepstatin, and 1 μg/ml leupeptin), boiled, separated via SDS-polyacrylamide gel electrophoresis, and transferred to nitrocellulose membranes. After immunoblot analysis with phospho-ERK1/2 (Thr 202/Tyr 204), phospho-Akt (Ser 473), phospho-STAT3 (Tyr 705), Cylin D1, or Bcl-2 antibodies, the membranes were stripped and re-incubated with anti-Actin antibody in order to detect total protein amounts.

[4] = system: HUVECs; assay: HUVEC wounding migration assay; format: cell-based, human; settings: SAA 5 μM, WKYMVm 10 nM, VEGF 20 ng/ml; 12 h
Method: […] After 12 h of incubation, migration was quantitated via counts of the cells migrating beyond the reference line. For the tube formation assay, the HUVECs were seeded on a layer of previously polymerized Matrigel (BD Biosciences) with SAA (SEQ ID NO:19) (5 μg/ml), WKYMVm (SEQ ID NO:5) peptide (10 nM), a specific ligand for FPRL1 (32, 33) or VEGF (20 ng/ml). After 18 h of incubation, the cell morphology was visualized via phase-contrast microscopy and photographed.

[5] = system: C57BL/6 mice; assay: Mouse Matrigel plug assay; format: in vivo; settings: 7 days; for vessels in Matrigel (stained sections): SAA 80 μg or WKYMVm 1 μg
Method: C57BL/6 mice (7 weeks of age) were given s.c. injections of 500 μl of Matrigel containing PBS, SAA (SEQ ID NO:19) (80 μg), or WKYMVm (SEQ ID NO:5) (1 μg). After 7 days, the skins of the mice were pulled back to expose the Matrigel plugs, which remained intact. After the noting and photographing of any quantitative differences, hemoglobin levels were measured via the Drabkin method, using a Drabkin reagent kit 525 (Sigma) for the quantitative assessment of blood vessel formation. The hemoglobin concentration was calculated from the parallel assay of a known amount of hemoglobin. The matrigel plugs were fixed in 4% formalin, embedded with paraffin, and stained using hematoxylin and eosin.

Molecule	DNA synthesis activity / proliferation ([3H]-thymidine incorporation) [1]	serum starvation-induced apoptosis (MTT assay, DNA fragmentation ELISA) [2]	time of peak cyclin D1 expression [3]	activation of ERK and Akt ([3]; WKYMVm 1 to 1000 nM)	migratory activity of HUVECs relative to control cells [4]	vessels in Matrigel (stained sections) [5]	cell numbers [1]	concentration of maximal effect on DNA synthesis [1]	DNA fragmentation induced by SNP (0.7 mM) or anti-Fas (0.7 μg/ml) plus CHX (1 μg/ml) ([2]; SAA 3 μM, 12 h)	earliest detectable ERK1/2 and Akt phosphorylation after stimulation ([3]; 3 μM SAA)	mean hemoglobin content of Matrigels ([5]; SAA 80 μg in Matrigel s.c.)
WKYMVm: specific agonist peptide for FPRL1, SEQ ID NO:5 (WKYMV[dM]; listed as Homo sapiens)	not OA FLS	mitigating starvation-induced cell death	4 h	dose and time-dependent activation	approximately 3 times	more vessels					
B1	increased in a dose-dependent fashion	dose-dependent inhibition	4 h		approximately 3 times	more vessels	dose-dependently increased	5 µM	blocked almost completely	1 min	4.90 ± 0.66 g/dL

Reference: US20100291089A1, “LIGAND OF REGULATING IMMUNE RESPONSE, AND USE THEREOF IN TREATING AN IMMUNE RESPONSE-RELATED DISEASE” (POSTECH ACADEMY-INDUSTRY FOUNDATION, priority 2005, published 2010)
